Here are results for ten molecules from US20100260668A1 (published 2010).

Usually Kd stands for a measure of binding affinity in units of concentration. Read a low Kd as higher affinity. Usually koff stands for the rate constant with which the complex falls apart. Low readings indicate slow dissociation, high ones fast dissociation. Broadly, the kon is a measure of how fast the partners come together.

The chains are these.
B1: DVD445 (bispecific antibody, human IgG1, kappa)
heavy: not shown
light: DIVMTQSPDSLAVSLGERATISCRASESVDNYGISFMKWFQQKPGQPPKLLIYAASNQGSGVPDRFSGSGSGTDFTLTISSLQAEDVAVYYCQQSKEVPWTFGGGTKVEIKRTVAAPDIQMTQSPSSLSASVGDRVTITCRASQVIRRSLAWYQQKPGKAPKLLIYAASNLASGVPSRFSGSGSGTDFTLTISSLQPEDFATYYCQQSNTSPLTFGQGTKVEIKRTVAAPSVFIFPPSDEQLKSGTASVVCLLNNFYPREAKVQWKVDNALQSGNSQESVTEQDSKDSTYSLSSTLTLSKADYEKHKVYACEVTHQGLSSPVTKSFNRGEC
notes: DVD-Ig; N-term; AB069 (DLL4), C-term; AB071 (VEGF); HC linker short, LC linker short; also called DVD445H; DVD445L
B2: DVD457 (bispecific antibody, human IgG1, kappa, L234A L235A)
heavy: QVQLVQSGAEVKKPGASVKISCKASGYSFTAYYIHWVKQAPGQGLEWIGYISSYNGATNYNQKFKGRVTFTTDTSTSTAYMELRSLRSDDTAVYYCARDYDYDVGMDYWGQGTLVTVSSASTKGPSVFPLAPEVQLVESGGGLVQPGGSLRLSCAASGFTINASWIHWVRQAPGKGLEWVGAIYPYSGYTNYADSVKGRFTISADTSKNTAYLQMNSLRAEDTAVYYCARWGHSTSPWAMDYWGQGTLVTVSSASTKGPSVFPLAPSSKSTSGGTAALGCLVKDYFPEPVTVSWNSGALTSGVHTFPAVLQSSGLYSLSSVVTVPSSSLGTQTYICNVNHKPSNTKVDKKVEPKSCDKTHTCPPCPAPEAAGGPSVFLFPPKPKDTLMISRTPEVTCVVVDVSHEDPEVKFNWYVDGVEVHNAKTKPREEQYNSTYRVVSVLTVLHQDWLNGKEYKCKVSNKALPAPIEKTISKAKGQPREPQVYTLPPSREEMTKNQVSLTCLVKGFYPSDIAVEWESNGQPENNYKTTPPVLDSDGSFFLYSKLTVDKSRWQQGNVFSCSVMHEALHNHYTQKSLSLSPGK
light: DIVMTQSPDSLAVSLGERATISCRASESVDNYGISFMKWFQQKPGQPPKLLIYAASNQGSGVPDRFSGSGSGTDFTLTISSLQAEDVAVYYCQQSKEVPWTFGGGTKVEIKRTVAAPDIQMTQSPSSLSASVGDRVTITCRASQVIRRSLAWYQQKPGKAPKLLIYAASNLASGVPSRFSGSGSGTDFTLTISSLQPEDFATYYCQQSNTSPLTFGQGTKVEIKRTVAAPSVFIFPPSDEQLKSGTASVVCLLNNFYPREAKVQWKVDNALQSGNSQESVTEQDSKDSTYSLSSTLTLSKADYEKHKVYACEVTHQGLSSPVTKSFNRGEC
notes: DVD-Ig; N-term; AB069 (DLL4), C-term; AB071 (VEGF); HC linker long, LC linker short; also called DVD457H; DVD457L
B3: DVD515 (bispecific antibody, human IgG1, kappa)
heavy: not shown
light: QAVVTQESALTTSPGETVTLTCRSSTGAVTTSNYANWVQEKPDHLFTGLIGGTNNRAPGVPARFSGSLIGDKAALTITGAQTEDEAIYFCALWYSNHWVFGGGTKLTVLGQPKAAPDIQMTQSPSSLSASVGDRVTITCRASQVIRRSLAWYQQKPGKAPKLLIYAASNLASGVPSRFSGSGSGTDFTLTISSLQPEDFATYYCQQSNTSPLTFGQGTKVEIKRTVAAPSVFIFPPSDEQLKSGTASVVCLLNNFYPREAKVQWKVDNALQSGNSQESVTEQDSKDSTYSLSSTLTLSKADYEKHKVYACEVTHQGLSSPVTKSFNRGEC
notes: DVD-Ig; N-term; AB073 (DLL4), C-term; AB071 (VEGF); HC linker short, LC linker short; also called DVD515H; DVD515L
B4: DVD506 (bispecific antibody, human IgG1, kappa)
heavy: not shown
light: DIQMTQSPSSLSASVGDRVTITCSASQDISNYLNWYQQKPGKAPKVLIYFTSSLHSGVPSRFSGSGSGTDFTLTISSLQPEDFATYYCQQYSTVPWTFGQGTKVEIKRTVAAPSVFIFPPDIQMTQSSSYLSVSLGGRVTITCKASDHINNWLAWYQQKPGNAPRLLISGATSLETGVPSRFSGSGSGKDYTLSITSLQTEDVATYYCQQYWSIPLTFGAGTKLELKRTVAAPSVFIFPPSDEQLKSGTASVVCLLNNFYPREAKVQWKVDNALQSGNSQESVTEQDSKDSTYSLSSTLTLSKADYEKHKVYACEVTHQGLSSPVTKSFNRGEC
notes: DVD-Ig; N-term; AB014 (VEGF), C-term; AB072 (DLL4); HC linker short, LC linker long; also called DVD506H; DVD506L
B5: DVD451 (bispecific antibody, human IgG1, kappa, L234A L235A)
heavy: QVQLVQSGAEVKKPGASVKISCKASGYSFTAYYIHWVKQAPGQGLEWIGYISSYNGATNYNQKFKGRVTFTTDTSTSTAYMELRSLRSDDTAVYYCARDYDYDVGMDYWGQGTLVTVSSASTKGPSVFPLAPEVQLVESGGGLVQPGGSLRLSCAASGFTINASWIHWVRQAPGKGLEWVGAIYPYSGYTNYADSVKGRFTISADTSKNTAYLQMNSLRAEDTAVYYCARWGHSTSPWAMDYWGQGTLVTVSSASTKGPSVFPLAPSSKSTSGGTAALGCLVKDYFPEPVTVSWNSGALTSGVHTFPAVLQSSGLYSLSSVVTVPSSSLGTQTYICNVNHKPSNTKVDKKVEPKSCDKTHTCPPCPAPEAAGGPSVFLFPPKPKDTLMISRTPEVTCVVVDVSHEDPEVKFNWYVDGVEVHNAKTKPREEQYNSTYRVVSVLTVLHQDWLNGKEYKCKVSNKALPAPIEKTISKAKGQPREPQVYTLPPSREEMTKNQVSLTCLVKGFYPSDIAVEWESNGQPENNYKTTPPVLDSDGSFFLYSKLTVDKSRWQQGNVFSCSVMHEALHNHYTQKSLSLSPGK
light: DIVMTQSPDSLAVSLGERATISCRASESVDNYGISFMKWFQQKPGQPPKLLIYAASNQGSGVPDRFSGSGSGTDFTLTISSLQAEDVAVYYCQQSKEVPWTFGGGTKVEIKRTVAAPSVFIFPPDIQMTQSPSSLSASVGDRVTITCRASQVIRRSLAWYQQKPGKAPKLLIYAASNLASGVPSRFSGSGSGTDFTLTISSLQPEDFATYYCQQSNTSPLTFGQGTKVEIKRTVAAPSVFIFPPSDEQLKSGTASVVCLLNNFYPREAKVQWKVDNALQSGNSQESVTEQDSKDSTYSLSSTLTLSKADYEKHKVYACEVTHQGLSSPVTKSFNRGEC
notes: DVD-Ig; N-term; AB069 (DLL4), C-term; AB071 (VEGF); HC linker long, LC linker long; also called DVD451H; DVD451L
B6: DVD463 (bispecific antibody, human IgG1, kappa)
heavy: not shown
light: DIVMTQSPDSLAVSLGERATISCRASESVDNYGISFMKWFQQKPGQPPKLLIYAASNQGSGVPDRFSGSGSGTDFTLTISSLQAEDVAVYYCQQSKEVPWTFGGGTKVEIKRTVAAPSVFIFPPDIQMTQSPSSLSASVGDRVTITCRASQVIRRSLAWYQQKPGKAPKLLIYAASNLASGVPSRFSGSGSGTDFTLTISSLQPEDFATYYCQQSNTSPLTFGQGTKVEIKRTVAAPSVFIFPPSDEQLKSGTASVVCLLNNFYPREAKVQWKVDNALQSGNSQESVTEQDSKDSTYSLSSTLTLSKADYEKHKVYACEVTHQGLSSPVTKSFNRGEC
notes: DVD-Ig; N-term; AB069 (DLL4), C-term; AB071 (VEGF); HC linker short, LC linker long; also called DVD463H; DVD463L
B7: DVD467 (bispecific antibody, human IgG1, kappa)
heavy: not shown
light: DIQMTQSPSSLSASVGDRVTITCRASQDVSTAVAWYQQKPGKAPKLLIYSASFLYSGVPSRFSGSGSGTDFTLTISSLQPEDFATTYYCQQSYTGTVTFGQGTKVEIKRTVAAPDIQMTQSPSSLSASVGDRVTITCRASQVIRRSLAWYQQKPGKAPKLLIYAASNLASGVPSRFSGSGSGTDFTLTISSLQPEDFATYYCQQSNTSPLTFGQGTKVEIKRTVAAPSVFIFPPSDEQLKSGTASVVCLLNNFYPREAKVQWKVDNALQSGNSQESVTEQDSKDSTYSLSSTLTLSKADYEKHKVYACEVTHQGLSSPVTKSFNRGEC
notes: DVD-Ig; N-term; AB015 (DLL4), C-term; AB071 (VEGF); HC linker short, LC linker short; also called DVD467H; DVD467L
B8: DVD479 (bispecific antibody, human IgG1, kappa)
heavy: not shown
light: DIQMTQSPSSLSASVGDRVTITCRASQDVSTAVAWYQQKPGKAPKLLIYSASFLYSGVPSRFSGSGSGTDFTLTISSLQPEDFATTYYCQQSYTGTVTFGQGTKVEIKRTVAAPDIQMTQSPSSLSASVGDRVTITCRASQVIRRSLAWYQQKPGKAPKLLIYAASNLASGVPSRFSGSGSGTDFTLTISSLQPEDFATYYCQQSNTSPLTFGQGTKVEIKRTVAAPSVFIFPPSDEQLKSGTASVVCLLNNFYPREAKVQWKVDNALQSGNSQESVTEQDSKDSTYSLSSTLTLSKADYEKHKVYACEVTHQGLSSPVTKSFNRGEC
notes: DVD-Ig; N-term; AB015 (DLL4), C-term; AB071 (VEGF); HC linker long, LC linker short; also called DVD479H; DVD479L
B9: DVD473 (bispecific antibody, human IgG1, kappa)
heavy: not shown
light: DIQMTQSPSSLSASVGDRVTITCRASQDVSTAVAWYQQKPGKAPKLLIYSASFLYSGVPSRFSGSGSGTDFTLTISSLQPEDFATTYYCQQSYTGTVTFGQGTKVEIKRTVAAPSVFIFPPDIQMTQSPSSLSASVGDRVTITCRASQVIRRSLAWYQQKPGKAPKLLIYAASNLASGVPSRFSGSGSGTDFTLTISSLQPEDFATYYCQQSNTSPLTFGQGTKVEIKRTVAAPSVFIFPPSDEQLKSGTASVVCLLNNFYPREAKVQWKVDNALQSGNSQESVTEQDSKDSTYSLSSTLTLSKADYEKHKVYACEVTHQGLSSPVTKSFNRGEC
notes: DVD-Ig; N-term; AB015 (DLL4), C-term; AB071 (VEGF); HC linker long, LC linker long; also called DVD473H; DVD473L
B10: DVD485 (bispecific antibody, human IgG1, kappa)
heavy: not shown
light: DIQMTQSPSSLSASVGDRVTITCRASQDVSTAVAWYQQKPGKAPKLLIYSASFLYSGVPSRFSGSGSGTDFTLTISSLQPEDFATTYYCQQSYTGTVTFGQGTKVEIKRTVAAPSVFIFPPDIQMTQSPSSLSASVGDRVTITCRASQVIRRSLAWYQQKPGKAPKLLIYAASNLASGVPSRFSGSGSGTDFTLTISSLQPEDFATYYCQQSNTSPLTFGQGTKVEIKRTVAAPSVFIFPPSDEQLKSGTASVVCLLNNFYPREAKVQWKVDNALQSGNSQESVTEQDSKDSTYSLSSTLTLSKADYEKHKVYACEVTHQGLSSPVTKSFNRGEC
notes: DVD-Ig; N-term; AB015 (DLL4), C-term; AB071 (VEGF); HC linker short, LC linker long; also called DVD485H; DVD485L

T1 sequence (P15692 other isoform, or with tags, fused parts or gaps limits assumed): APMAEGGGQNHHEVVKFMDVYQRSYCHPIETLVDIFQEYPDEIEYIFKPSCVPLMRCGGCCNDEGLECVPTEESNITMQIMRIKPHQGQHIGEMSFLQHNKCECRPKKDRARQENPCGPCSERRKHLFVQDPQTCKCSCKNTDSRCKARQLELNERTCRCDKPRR

This assay concerns the target T1, VEGF (UniProt P15692-4 27-191).
T1 construct: Bought reagent; also called vascular endothelial growth factor
The experiment in a line: BIACORE SPR. On the technique in general: Surface plasmon resonance follows binding to a sensor surface in real time, without labels.
In turn, B1 registered a Kd of 0.272 nM, a koff of 1.8 s⁻¹ and a kon of 6.64e+09 M⁻¹ s⁻¹.

B2: the affinity, expressed as Kd, was 0.307 nM; the koff amounted to 5.43e-05 s⁻¹; the kon came to 177000 M⁻¹ s⁻¹.

In the case of B3, the Kd stood at 1.45 nM, the koff was determined as 0.000585 s⁻¹ and the kon worked out at 405000 M⁻¹ s⁻¹.

On to B4, for which binding was put at a Kd of 0.281 nM, the koff amounted to 0.000171 s⁻¹ and the kon came to 606000 M⁻¹ s⁻¹.

For B5, the affinity, expressed as Kd, was 0.0115 nM; the koff stood at 1.06e-06 s⁻¹; the kon is 92200 M⁻¹ s⁻¹.

For the molecule B6, the dissociation constant Kd was found to be 0.771 nM, the dissociation rate constant (koff) was 0.000479 s⁻¹ and the kon was found to be 621000 M⁻¹ s⁻¹.

B7: the affinity, expressed as Kd, was 1.33 nM; the koff amounted to 0.000236 s⁻¹; the kon was determined as 177000 M⁻¹ s⁻¹.

In turn, B8 gave a Kd of 0.86 nM, a koff of 0.000257 s⁻¹ and a kon of 299000 M⁻¹ s⁻¹.

B9: the Kd is 1.27 nM, the koff worked out at 0.000265 s⁻¹ and the kon is 209000 M⁻¹ s⁻¹.

B10: the Kd stood at 0.372 nM.
